Data reported in PMC4980433 (Molecular Cell, 2016).
Each block holds one binder with its values, some of them ahead of it.

What was measured:
[1] = target: the molecule itself; test: ultracentrifugation sedimentation assay; purified SAM domains (25 μM) centrifuged at an average 200,000 x g, 20°C, 1 hr; total, supernatant and pellet on SDS-PAGE with Coomassie staining; polymers partition into the pellet; proteins of Figure 5A affinity purified
TNKS SAM Y1073A, O95271 = target: T1, TNKS SAM Y1073A, O95271; test: ITC; settings: chain shown with the change; N = 0.72±0.01
T1 chain: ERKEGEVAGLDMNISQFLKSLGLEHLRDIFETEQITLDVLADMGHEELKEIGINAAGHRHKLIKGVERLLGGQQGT

TNKS SAM Y1073A = TNKS SAM Y1073A (human, UniProt O95271 1018-1093, Y1073A^T1); test: ITC
[2] = target: the molecule itself; test: crystal structure; SAM domain mutants crystallized; head-to-tail (EH-ML) filaments in the crystals; molecular replacement

B1: TNKS2 SAM domain (867-940), wild type (domain or fragment, human, UniProt Q9H2K2 867-940, looked up)
chain: EKKEVPGVDFSITQFVRNLGLEHLMDIFEREQITLDVLVEMGHKELKEIGINAYGHRHKLIKGVERLISGQQGL
notes: SAM domain of human Tankyrase 2 (TNKS2, ARTD6), residues 867-940; Forms polydisperse polymers (filaments); theoretical MW about 9 kDa; also called TNKS2 WT
binding result [1]: binds

Kd (TNKS SAM Y1073A, O95271): 820 nM
other: ΔH (TNKS SAM Y1073A, O95271): -6 kcal/mol
other: ΔS (TNKS SAM Y1073A, O95271): 7.7 cal/mol/deg
Kd (TNKS SAM Y1073A): 860 nM
B2: TNKS SAM V1056W (domain or fragment)
chain: ERKEGEVAGLDMNISQFLKSLGLEHLRDIFETEQITLDWLADMGHEELKEIGINAYGHRHKLIKGVERLLGGQQGT

B3: TNKS SAM D1055R (domain or fragment, human, UniProt O95271 1018-1093, looked up)
chain: ERKEGEVAGLDMNISQFLKSLGLEHLRDIFETEQITLRVLADMGHEELKEIGINAYGHRHKLIKGVERLLGGQQGT
notes: SAM domain of human Tankyrase (TNKS), residues 1018-1093, with D1055R; Polymer-breaking mutant used for crystallization (two crystal forms); also called TNKS D1055R^T1 SAM domain
binding result [2]: binds
